Laboratory results from paper PMC7946963, “Phosphorylation regulates the binding of autophagy receptors to FIP200 Claw domain for selective autophagy initiation” (Nature Communications, 2021).

Key:
Test in all cases: fluorescence polarisation titration
Conditions in all cases: reference: unphosphorylated CCPG1 FIR2 peptide; sites S104
[1] = biological target: FIP200 (RB1CC1) Claw domain, 1490-1594 (UniProt Q8TDY2)
GABARAPL1 = GABARAPL1 (UniProt Q9H0R8)
GABARAPL2 = GABARAPL2 (UniProt P60520)
LC3A = LC3A (UniProt Q9H492)
LC3B = LC3B (UniProt Q9GZQ8)
LC3C = LC3C (UniProt Q9BXW4)

binding against the reference [1]: stronger
binding against the reference (GABARAPL1): stronger
binding against the reference (GABARAPL2): stronger
binding against the reference (LC3A): stronger
binding against the reference (LC3B): stronger
binding against the reference (LC3C): stronger
Substance: CCPG1 FIR2, 99-113 (from UniProt Q9ULG6) pS104 CCPG1 FIR2 peptide
